These results are taken from patent publication US20220356255A1 (CENTESSA PHARMACEUTICALS UK, published 2022).

The chains are these.
B1: Fab 8B06 (Fab, V domains shown)
VH: QVQLVQSGGGVVQPGRSLRLSCAASGFTFSSYGMYWVRQAPGKGLEWVAVISYDGSNKYYADSVKGRFTISRDNSKNTLNLQMNSLRAEDTAVYYCAKGALTHWGVVIGDGMDVWGQGTTVTVSS
VL: NFMLTQPHSVSESPGKTVTISCRETELSRRLHYVRWYQQRPGSSPTTVIYEDDQRPSGVPDRFSGSIDSSSNSASLTISGLKTEDEADYYCQSFDSTNPWVFGGGTKLTVL
notes: Purified Fab prepared from IgG with the Pierce kit; also called 8B06 Fab
B2: Fab 8D04 (Fab, V domains shown)
VH: B1 VH
VL: B1 VL with E24G, E26G, L27S, R29F, R30H, L31H, H32K
notes: Purified Fab prepared from IgG with the Pierce kit; also called 8D04 Fab
B3: Fab 8G08 (Fab, V domains shown)
VH: B1 VH
VL: B1 VL with R23I, E24S, T25N, E26D, L27V, S28P, R29A, R30S, L31G, V34H
notes: Purified Fab prepared from IgG with the Pierce kit; also called 8G08 Fab
B4: Fab 8A04 (Fab, V domains shown)
VH: B1 VH
VL: B1 VL with R23M, E24R, E26G, L27T, S28G, R29N, R30K, L31G, V34T
notes: Purified Fab prepared from IgG with the Pierce kit; also called 8A04 Fab
B5: 8B06 mAb (antibody, V domains shown)
VH: B1 VH
VL: B1 VL
notes: Formatted into an IgG1; also called 8B06 IgG1
B6: 8D06 mAb (antibody, V domains shown)
VH: B1 VH
VL: B1 VL with R23V, E24L, T25S, E26P, L27R, S28T, R29H, R30A, L31G, V34Y
notes: Formatted into an IgG1; also called 8D06 IgG1
B7: 8D04 mAb (antibody, V domains shown)
VH: B1 VH
VL: B1 VL with E24G, E26G, L27S, R29F, R30H, L31H, H32K
notes: Formatted into an IgG1; also called 8D04 IgG1
B8: 8G08 mAb (antibody, V domains shown)
VH: B1 VH
VL: B1 VL with R23I, E24S, T25N, E26D, L27V, S28P, R29A, R30S, L31G, V34H
notes: Formatted into an IgG1; also called 8G08 IgG1
B9: 8A04 mAb (antibody, V domains shown)
VH: B1 VH
VL: B1 VL with R23M, E24R, E26G, L27T, S28G, R29N, R30K, L31G, V34T
notes: Formatted into an IgG1; also called 8A04 IgG1

Changes are numbered by the printed parent chain.

T3 sequence (Q9NZQ7 19-290 limits assumed): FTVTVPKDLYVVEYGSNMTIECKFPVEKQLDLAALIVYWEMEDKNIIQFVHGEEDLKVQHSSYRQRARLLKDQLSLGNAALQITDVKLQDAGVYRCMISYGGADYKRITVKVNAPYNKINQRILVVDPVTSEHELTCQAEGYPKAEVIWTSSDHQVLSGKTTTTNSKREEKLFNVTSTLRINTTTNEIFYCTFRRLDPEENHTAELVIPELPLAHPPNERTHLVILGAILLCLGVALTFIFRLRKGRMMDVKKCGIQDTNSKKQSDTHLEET

In one test the target is T1, biotinylated human PD-L1 (human, UniProt Q9NZQ7 19-239, limits assumed, biotinylated (sites not given)).
T1 construct: Bought from R&D Systems; also called biotinylated-PD-L1; human PD-L1 biotin
T1 sequence (Q9NZQ7 19-239 limits assumed): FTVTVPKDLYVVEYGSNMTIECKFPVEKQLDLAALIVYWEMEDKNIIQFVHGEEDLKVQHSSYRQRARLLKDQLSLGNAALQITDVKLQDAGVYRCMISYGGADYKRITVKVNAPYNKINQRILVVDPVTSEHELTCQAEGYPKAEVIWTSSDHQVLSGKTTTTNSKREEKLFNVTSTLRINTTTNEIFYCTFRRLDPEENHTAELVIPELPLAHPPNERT
Briefly: competition ELISA, Fab with biotinylated PD-L1 on coated PD-1-Fc, pH 6.5. In general terms: In an ELISA, binding on a coated surface is turned into a signal by an enzyme label.
What is called IC50 is the concentration needed to halve the response being measured. As to B1, the IC50 was 52.7 nM.

In turn, B2 came in with an IC50 above 100 nM.

B3 displayed an IC50 of 41.6 nM.

B4 displayed an IC50 of 29.4 nM.

The next test addresses T1, biotinylated human PD-L1. Briefly: competition ELISA, Fab with biotinylated PD-L1 on coated PD-1-Fc, pH 6.
For the molecule B1, the IC50 turned out to be 15.7 nM.

Regarding B2, the IC50 is 42.3 nM.

As for B3, the IC50 stood at 12.1 nM.

For B4, the half-inhibitory concentration (IC50) worked out at 12.2 nM.

Another test deals with T2, human PD-L1-Fc protein (human, UniProt Q9NZQ7 19-239).
T2 construct: Bought from R&D Systems; also called immobilised PD-L1-Fc; not shown: Fc part of the bought fusion protein, not described
T2 sequence (Q9NZQ7 19-239 limits assumed): as above
Briefly: BIAcore off rate, unpurified periplasmic extract Fab on PD-L1.
Regarding B1, the “Ratio pH 6 vs 7.4” value was determined as 13.

As for B2, the “Ratio pH 6 vs 7.4” value was found to be 10.

On to B3, for which the “Ratio pH 6 vs 7.4” value was 27.

B4: the “Ratio pH 6 vs 7.4” value is 9.

Another test has as its target T2, human PD-L1-Fc protein. Briefly: ELISA, Fab on coated human PD-L1-Fc, pH 6.
As a reminder, the EC50 is the concentration needed to bring the measured effect to its halfway point. Low readings indicate a more potent agent, high ones a less potent agent. B1 displayed an EC50 of 0.31 nM.

B2 registered an EC50 of 2.63 nM.

The molecule B3 had an EC50 of 0.1 nM.

As for B4, the EC50 amounted to 0.54 nM.

A further test has as its target T3, human PD-L1 on cells (human, UniProt Q9NZQ7 19-290).
T3 construct: Endogenous on MDA-MB-231 cells or transfected into HEK293FF cells (Sino Biological plasmid); the assay field says which; also called native PD-L1 on MDA-MB-231 cells; PD-L1 expressing MDA-MB-231 cells
Briefly: flow cytometry on MDA-MB-231 cells, pH 7.4. On the technique in general: Flow cytometry measures light scatter and fluorescence of single cells or particles in a stream.
Take B5: a half-maximal response (EC50) required 0.12 nM.

The molecule B6 yielded an EC50 of 0.08 nM.

The molecule B7 showed an EC50 of 0.1 nM.

Regarding B8, a half-maximal response (EC50) required 0.09 nM.

Regarding B9, the EC50 is 0.09 nM.

In the next test the target is T3, human PD-L1 on cells. Briefly: flow cytometry on MDA-MB-231 cells, Krebs buffer, pH 6.5. As for the experimental part: (§1) Anti-PD-L1 affinity matured Fabs were tested for their ability to bind to native PD-L1 in a cell line, (MDA-MB-231 cells) in a buffer resembling the tumor microenvironment (Krebs-lactate).
In turn, B1 had an EC50 of 6.4 nM.

The molecule B2 registered a concentration giving a half-maximal response (EC50) of 56.4 nM.

In the case of B3, the EC50 is 2.95 nM.

B4 yielded an EC50 of 6.62 nM.

A further test deals with T1, biotinylated human PD-L1. Briefly: competition ELISA, Fab with biotinylated PD-L1 on coated PD-1-Fc, pH 6. This is another data set of the same source.
B1: the “fold less (IC50) than the control Fab 2.7A04OPT at pH 6” value is around 3 fold.

Regarding B3, the “fold less (IC50) than the control Fab 2.7A04OPT at pH 6” value was around 3 fold.

As for B4, the “fold less (IC50) than the control Fab 2.7A04OPT at pH 6” value was around 3 fold.

The target in a further test is T2, human PD-L1-Fc protein. Briefly: ELISA, purified Fab on coated human PD-L1-Fc, pH 6 (FIG. 4).
Take B1: the “concentration at saturation of binding” value was 4 nM.

In the case of B2, the “concentration at saturation of binding” value came to 4 nM.

Consider B3, for which the “concentration at saturation of binding” value worked out at 4 nM.

On to B4, for which the “concentration at saturation of binding” value came out at 4 nM.

The target in the next test is T3, human PD-L1 on cells. Briefly: flow cytometry on MDA-MB-231 cells, Krebs-lactate buffer, pH 6 versus pH 7.4. As for the experimental part:
In order to mimic an acidic tumor environment milieu with tumor cells expressing PD-L1 (The metabolism of tumors in the body, Warburg et al. J Gen Physiol. 1927; 8:519-30) the following buffers were utilised: Krebs ringer bicarbonate buffer (KRB, Amsbio catalog number KRB-1000) with 1 mM lactic acid (Sigma catalog number 252476-50DG) for pH 7.4; KRB plus 15 mM lactic acid for pH 6.5 and KRB plus 20 mM lactic acid for pH 6.0). 3 fold dilutions (100 nM to 0.0005 nM; 0) of the Fabs or IgG were prepared in the respective pH buffers and incubated with 0.60E05 MDA-MB-231 cells for 60 minutes at 4° C. The cells were then washed 3× with the respective pH buffers, at 300 g for 3 min. The cells were then incubated with 50 μl of anti-human IgG (Fab specific)-FITC (Sigma, catalog number F5512-1ML) at 1:100 dilution in the respective pH buffers. Binding of the IgG or Fab to PD-L1 expressing cells was measured by FACS (Attune Nxt) and a total of 10.000 cells were acquired per sample.
as §1
With B1, the “pH binding preference (fold)” value was above 100 fold.

For B2, the “pH binding preference (fold)” value was above 100 fold.

For B4, the “pH binding preference (fold)” value was above 100 fold.

Another test addresses T1, biotinylated human PD-L1. Briefly: competition ELISA, Fab with biotinylated PD-L1 on coated PD-1-Fc.
Regarding B1, the “fold less inhibitory activity at pH 6.5 than at pH 6” value (“fold less inhibitory activity” for short) is around 3 fold.

In the case of B2, the “fold less potent than Fabs 8D06, 8A04, 8G08 and 8B06” value was around 3 fold.

Consider B3, for which the “fold less inhibitory activity” value was around 3 fold.

In the case of B4, the “fold less inhibitory activity” value was around 3 fold.

The next test has as its target T2, human PD-L1-Fc protein. Briefly: BIAcore off rate, unpurified periplasmic extract Fab on PD-L1, pH 7.4.
Usually koff stands for a measure of how fast the partners let go of each other. A lower koff goes with a long-lived complex. In turn, B1 displayed a koff of 0.0105 s⁻¹.

For the molecule B2, the koff came out at 0.0275 s⁻¹.

For B3, the koff came to 0.00308 s⁻¹.

In the case of B4, the koff was 0.015 s⁻¹.

The next test addresses T1, biotinylated human PD-L1. Briefly: competition ELISA, Fab with biotinylated PD-L1 on coated PD-1-Fc; ratio of IC50 values.
As for B1, the “Ratio pH 6:7.4” value was above 6.37.

Take B2: the “Ratio pH 6:7.4” value is above 2.36.

Consider B3, for which the “Ratio pH 6:7.4” value was above 8.26.

For B4, the “Ratio pH 6:7.4” value amounted to 6.66.

In the next test the target is T3, human PD-L1 on cells. Briefly: flow cytometry on MDA-MB-231 cells, Krebs buffer, pH 6. As for the experimental part: as §1
In turn, B1 had an EC50 of 2 nM.

Molecule B2 yielded an EC50 of 13.5 nM.

The molecule B3 gave an EC50 of 1.58 nM.

B4: the EC50 was found to be 2.16 nM.

The target in the next test is T3, human PD-L1 on cells. Briefly: flow cytometry on MDA-MB-231 cells, Krebs buffer, pH 7.4. As for the experimental part: as §1
Molecule B1 gave an EC50 above 100 nM.

In turn, B2 gave an EC50 above 100 nM.

B3 showed an EC50 of 13.2 nM.

For B4, the EC50 was above 100 nM.

A further test has as its target T2, human PD-L1-Fc protein. Briefly: BIAcore off rate, unpurified periplasmic extract Fab on PD-L1, pH 6. (In general: In SPR one partner is held on a chip, and binding of the other changes the refractive index at the surface.)
Regarding B1, the koff amounted to 0.00135 s⁻¹.

For the molecule B2, the koff came to 0.00283 s⁻¹.

The molecule B3 yielded a koff of 0.000823 s⁻¹.

Molecule B4 showed a koff of 0.00131 s⁻¹.

The target of another test is T1, biotinylated human PD-L1. Briefly: competition ELISA, Fab with biotinylated PD-L1 on coated PD-1-Fc, pH 7.4.
In the case of B1, the IC50 was above 100 nM.

Consider B2, for which the IC50 is above 100 nM.

Molecule B3 gave an IC50 above 100 nM.

Molecule B4 came in with an IC50 of 81.2 nM.

Another test addresses T3, human PD-L1 on cells. Briefly: flow cytometry on MDA-MB-231 cells, pH 6.5.
B5 had an EC50 of 0.17 nM.

The molecule B6 gave an EC50 of 0.11 nM.

Molecule B7 gave a half-maximal effective concentration (EC50) of 0.13 nM.

With B8, it took 0.07 nM to reach a half-maximal effect (EC50).

Molecule B9 registered an EC50 of 0.11 nM.

Another test has as its target T2, human PD-L1-Fc protein. Briefly: ELISA, Fab on coated human PD-L1-Fc, pH 7.4.
Regarding B1, the EC50 was above 100 nM.

Molecule B2 showed an EC50 above 100 nM.

B3 gave an EC50 above 100 nM.

Take B4: the EC50 was above 10 nM.

A further test has as its target T3, human PD-L1 on cells. Briefly: flow cytometry on MDA-MB-231 cells, pH 6.
As to B5, it took 0.14 nM to reach a half-maximal effect (EC50).

In turn, B6 showed an EC50 of 0.11 nM.

B7 displayed an EC50 of 0.11 nM.

With B8, a half-maximal effect (EC50) was put at 0.08 nM.

In the case of B9, the EC50 turned out to be 0.09 nM.

The next test concerns the target T2, human PD-L1-Fc protein. Briefly: ELISA, Fab on coated human PD-L1-Fc; ratio from extrapolating an OD of 0.3 at pH 6 versus pH 7.4.
As for B1, the “Ratio pH 6:7.4” value was 38.

As for B2, the “Ratio pH 6:7.4” value is 9.

With B3, the “Ratio pH 6:7.4” value was 53.

Regarding B4, the “Ratio pH 6:7.4” value is 11.

The target in the next test is T3, human PD-L1 on cells. Briefly: flow cytometry on MDA-MB-231 cells, Krebs buffer; ratio of EC50 values. As to the method:
as §1
Consider B1, for which the “Ratio pH 6:7.4” value was above 50.

Regarding B2, the “Ratio pH 6:7.4” value is above 7.41.

Take B3: the “Ratio pH 6:7.4” value turned out to be 8.35.

On to B4, for which the “Ratio pH 6:7.4” value is above 46.3.
